The labels stand for the following.
T1: human h-GITR-his antigen (Sino Biological, Cat. #13643-H08H) (human, UniProt Q9Y5U5 26-161)
T1 construct: Bought protein; also called GITR antigen; not shown: His tag
T1 sequence (looked up): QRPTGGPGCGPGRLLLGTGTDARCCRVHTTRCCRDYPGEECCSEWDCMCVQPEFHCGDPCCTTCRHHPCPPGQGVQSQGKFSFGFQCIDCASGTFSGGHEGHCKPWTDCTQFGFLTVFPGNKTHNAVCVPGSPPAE

T2: human GITR with mFc tag (huGITR-mFc) (human)
T2 chain: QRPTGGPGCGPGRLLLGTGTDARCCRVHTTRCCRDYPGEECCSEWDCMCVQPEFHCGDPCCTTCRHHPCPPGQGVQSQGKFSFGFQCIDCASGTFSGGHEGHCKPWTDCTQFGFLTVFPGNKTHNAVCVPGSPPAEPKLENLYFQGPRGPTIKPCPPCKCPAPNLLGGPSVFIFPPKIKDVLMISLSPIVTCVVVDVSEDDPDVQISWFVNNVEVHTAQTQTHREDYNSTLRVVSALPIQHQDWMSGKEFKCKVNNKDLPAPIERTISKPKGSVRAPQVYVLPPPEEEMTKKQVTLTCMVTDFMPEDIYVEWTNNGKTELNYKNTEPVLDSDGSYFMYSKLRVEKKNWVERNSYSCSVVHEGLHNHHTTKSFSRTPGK

T3: mouse GITR (mouse, UniProt O35714 20-153, limits assumed)
T3 sequence (looked up): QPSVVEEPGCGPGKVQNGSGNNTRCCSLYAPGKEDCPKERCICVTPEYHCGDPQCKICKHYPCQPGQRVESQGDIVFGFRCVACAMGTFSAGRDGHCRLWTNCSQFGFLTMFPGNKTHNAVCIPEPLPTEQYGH

B1: mouse monoclonal antibody 8A11 (antibody, V domains shown)
VH: EVKLVESGGGLVKPGGSLKLSCAASGFTFSSYAMSWVRQTPEKRLEWVAYISSGGSTYYPDSVKGRFTISRENARNILYLQMSSLRSEDTAMYYCAREGYGTYGDYWGQGTTLTVSS
VL: DIVMSQSPSSLAVSVGEKVTMSCKSSQSLLYSTNQKNYLAWYQQKPGQSPKLLIYWASTRESGVPDRFTGSGSGTDFTLTISSVKAEDLAVYYCQQYYSYLRTFGGGTKLEIK
notes: Mouse antibody from a hybridoma
B2: mouse monoclonal antibody 18F10 (antibody, V domains shown)
VH: QVQLQQSGAELVRPGVSVKISCKCSGYTFTGYDLHWVKQSHAKSLDWIGVISTYYGDANYNQKFKGKATMTVDKSSSTAYMELARLTSEDSAIYYCTRLAESYFFDYWGQGTTLTVSS
VL: QILLTQSPAIMSASPGEKVTMTCRASSSVSYIHWYQQKPGSSPKPWIYDTSDLASGFPARFSGTGSGTSYSLIISSMEAEDAATYYCHQRSSYPFTFGSGTKLEIK
notes: as for B1
B3: humanized anti-GITR antibody hu8A11 (antibody, human IgG1, kappa, V domains shown)
VH: EVQLVESGGGLVQPGGSLRLSCAASGFTFSSYAMSWVRQAPGKGLEWVAYISSGGSTYYPDSVKGRFTISRDNAKNSLYLQMNSLRAEDTAVYYCAREGYGTYGDYWGQGTTLTVSS
VL: DIVMTQSPSSLAVSVGERVTISCKSSQSLLYSTNQKNYLAWYQQKPGQSPKLLIYWASTRESGVPDRFSGSGSGTDFTLTISSLQAEDVAVYYCQQYYSYLRTFGGGTKLEIKR
notes: also called h8A11
B4: reference antibody BMAB (Merck's MK-4166 antibody) (antibody, V domains shown)
VH: QVQLQQSGAEVKKPGSSVRVSCKASGGTFNNNAINWVRQAPGQGLEWMGGIIPMFGTAKYSQNFQGRVAITADESTGTASMELSSLRSEDTAVYYCARSRDLLLFPHHALSPWGRGTMVTVSS
VL: SSELTQDPAVSVALGQTVRVTCQGDSLRSYYASWYQQKPGQAPVLVIYGKNNRPSGIPDRFSGSSSGNTASLTITGAQAEDEADYYCSSRDSSGNHWVFGGGTELTVLG
B5: humanized anti-GITR antibody hu18F10 (antibody, human IgG1, kappa, V domains shown)
VH: QVQLVQSGAEVVKPGASVKVSCKASGYTFTGYDLHWVRQAPGQGLEWIGVISTYYGDANYNQKFQGRVTMTVDTSSSTAYMELSRLRSEDTAVYYCTRLAESYFFDYWGQGTTLTVSS
VL: EIVLTQSPATLSASPGERVTLTCRASSSVSYLHWYQQKPGQAPKPWIYDTSNLASGFPARFSGDGSGTDYTLTISSLEAEDAAVYYCHQRSSYPFTFGSGTKLEIKR
B6: mouse monoclonal antibody 16G9 (antibody, V domains shown)
VH: QVQLQQSGAELAKPGASVKMSCKASGYTFTTYWIHWIKQRPGQGLEWIGYINPSTGYTDYNQNFKDKATLTADQYSSTAYMQLSSLTFEDSAVYYCANYYGSTPYYWGRGTTLTVSS
VL: QIVLTQSPAIMSASPGEKVTMTCSASSSVTYVHWYQQKSGASPERWIFDASKLASGVPARFSGSGSGTSYSLTISSMETEDAATYYCQQWSSNPLTFGAGTKLELK
notes: as for B1
B7: mouse monoclonal antibody 7D9 (antibody, V domains shown)
VH: DVQLQESGPGLVKPSQSLSLTCTVTGYSITSDYAWNWIRQFPGNKLEWLGYISYSGSTYYNPSLKSRISLTRDTSKNQFFLQLNSVTSEDTATYYCARWDYRYDGRGFDYWGQGTTLTVSS
VL: DIQMTQSPSSLSASLGERVSLTCRASQDIGSGLNWLQQEPDGTIKRLIYATSSLDSGVPKRFSGSRSGSDYSLTISSLESEDFVDYNCLQYTSTPWTFGGGTKLEIK
notes: as for B1

For one assay, the target named is cynomolgus GITR (cyno-GITR) (cynomolgus). The assay is described as follows: ELISA, cyno GITR coated at 1 ug/ml. How it is done: (§1) The GITR proteins from different species (mouse/cyno GITR) were diluted to 1 μg/ml with PBS buffer pH 9.5, and 50 μl/well was added to a 96-well microplate, which was incubated overnight (16-18 hours) at 4° C. The buffer in the plate was discarded prior to adding 300 μl/well of 1% BSA blocking buffer diluted with PBS, and the plate was incubated for blocking for 2.5h at 37° C. in an incubator. After blocking, the blocking buffer was discarded, and the plate was washed three times with PBST buffer (pH 7.4 PBS containing 0.05% tween-20). 50 μl/well antibodies to be tested were added to the plate, wherein the antibodies were diluted to different concentrations with sample diluent (pH7.4 PBS), and the plate was incubated at 37° C. in an incubator for 30 minutes. After incubation, the reaction buffer in the microplate was discarded prior to washing the plate with PBST three times, and 50 μL/well of Peroxidase AffiniPure Goat Anti-Human secondary antibody (JacksonImmunoResearch, 109-035-088) which was diluted with sample diluent was added, and the plate was incubated at 37° C. for 1 hour. […] The absorption value at 450 nm was read by a MD plus 384 microplate reader.
On to B1, for which the concentration giving a half-maximal response (EC50) turned out to be 5.21 nM. In other words, the single-digit nanomolar range.

Consider B2, for which a half-maximal effect (EC50) was put at 0.744 nM. Against the preceding molecule, the EC50 is about 7-fold lower.

The target of the next assay is T1, human h-GITR-his antigen (Sino …). As to the kind of experiment: SPR (Biacore T200), antibody captured on Protein A chip, h-GITR-his as analyte, 1:1 Langmuir fit. How it is done: The affinities of humanized anti-GITR antibodies to be tested and human GITR were measured by Biacore, GE instruments.
A Protein A biosensor chip (Cat. 29-1275-56, GE) for a Biacore Instrument (Biacore T200, GE) was used to affinity-capture a certain amount of antibodies to be tested, and then a series of concentration gradients of GITR antigen (human h-GITR-his antigen was selected from Sino Biological Company (Cat. #13643-H08H)) were flowed through the surface of the chip. Real-time reaction signals were detected by a Biacore Instrument (Biacore T200, GE), thus obtaining the binding and dissociation curves. The biochip was rinsed and regenerated with 10 mM glycine pH 1.5 after each dissociation cycle, and the buffer was PBST, pH7.4. The experimental data were fitted with (1:1) Langmuir model using Biacore T200 Evaluation 2.0, GE software, and the affinity values were obtained, as shown in Table 2.
On to B3, for which the Kd was 0.62 nM, the koff came out at 0.000104 s⁻¹ and the kon was 168000 M⁻¹ s⁻¹.

B4: the Kd turned out to be 0.185 nM.

Regarding B5, the Kd worked out at 0.33 nM, the off-rate constant (koff) was found to be 0.000204 s⁻¹ and the on-rate constant (kon) stood at 613000 M⁻¹ s⁻¹.

The target of another assay is T2, human GITR with mFc tag (huGITR-mFc). The assay is described as follows: ELISA, huGITR-mFc coated at 1 ug/ml. How it is done: The huGITR-mFc was diluted to 1 μg/ml with CBS buffer pH 9.5, added to the 96-well microplate at 50 μl/well, and incubated overnight at 4° C. The supernatant was discarded prior to 300 μl/well of 1% BSA blocking buffer diluted with PBS to the wells, and the plate was incubated for 2.5h at 37° C. in an incubator for blocking. After blocking, the blocking buffer was discarded, and the plate was washed three times with PBST buffer (pH 7.4 PBS containing 0.05% tween-20). 50 μl/well of the antibodies to be tested were added, with the antibodies being diluted to different concentrations with sample diluent, and the plate was incubated at 37° C. in an incubator for 30 minutes. The plate was then washed with PBST three times, and 50 μL/well of Peroxidase AffiniPure Goat Anti-Human secondary antibody (Jackson immune research, 115-035-088) diluted with sample diluent was added, followed by incubating at 37° C. for 30 minutes. After washing the plate with PBST three times, 50 μl/well of TMB chromogenic substrate was added and the plate was incubated at room temperature for 5 minutes prior to adding 50 μl/well of 1M […] to terminate the reaction. The absorption value at 450 nm was read by a MD plus 384 microplate reader. The data were analyzed with SoftMax Pro6.2.1 to obtain binding EC50 values of the anti-GITR antibodies to GITR, as shown in Table 1.
In the case of B1, a half-maximal effect (EC50) was put at 0.077 nM.

B4 displayed a half-maximal effective concentration (EC50) of 0.074 nM.

For B2, the concentration for a half-maximal effect (EC50) was 0.103 nM.

B6 displayed an EC50 of 0.075 nM. The EC50 values of the last two molecules are within 1.5-fold of each other.

For the molecule B7, the EC50 came out at 0.055 nM.

The target is the same in the next assay. As to the kind of experiment: ELISA, blocking of GITRL-His binding to coated GITR-Fc. How it is done: huGITR-mFc was diluted to 2 μg/ml with CBS buffer pH 9.5, added to the 96-well microplate at a volume of 50 μl/well, and incubated overnight at 4° C. The supernatant was discarded prior to adding 300 μl/well of 1% BSA blocking buffer diluted with PBS, and the plate was incubated for blocking for 2.5h at 37° C. in an incubator. After blocking, the blocking buffer was discarded, and the plate was washed three times with PBST buffer (pH 7.4 PBS containing 0.05% tween-20) prior to adding antibodies for pre-incubation, wherein the antibodies were diluted into gradient concentrations with sample diluent. 0.15 μg/ml of GITRL-His protein in a volume of 50 μl/well was added, mixed and incubated at 37° C. in an incubator for 30 minutes. The reaction buffer was then discarded, the plate was washed with PBST three times, and 50 μL/well of Peroxidase AffiniPure Goat Anti-Human secondary antibody diluted with sample diluent at a ratio of 1:4000 was added, then the place was incubated at 37° C. for 30 minutes. After washing the plate with PBST three times, 50 μl/well of TMB chromogenic substrate was added and the plate was incubated at room temperature for 5 minutes prior to adding 50 μl of 2M H₂SO₄ to terminate the reaction. The absorption value at 450 nm was read by a MD plus 384 microplate reader. The EC50 values of GITR antibodies binding to GITR were obtained by analyzing the data with SoftMax Pro6.2.1, as shown in Table 1.
Consider B1, for which the IC50 is 7.57 nM.

With B4, the IC50 came to 1.39 nM.

B2 came in with an IC50 of 6.04 nM.

B6: the IC50 amounted to 10.3 nM.

Consider B7, for which the IC50 worked out at 3.89 nM. Compared with the last molecule, the IC50 is about 2.6-fold lower.

A further assay deals with T3, mouse GITR. As to the kind of experiment: ELISA, mouse GITR coated at 1 ug/ml. How it is done: as §1
Turning to B1, the binding result was “no binding”.

Consider B2, for which the binding result is given as “no binding”.

Values taken from US20200131263A1 (JIANGSU HENGRUI MEDICINE, published 2020).
